Experiment [1] has as its target T1, canine PTH1 receptor (Canis lupus familiaris, UniProt Q9TU31).
T1 construct: A 1868 bp DNA fragment containing the complete coding region of canine PTH1 was generated by PCR; expressed in transfected cells; host or cells: CHO-K1 cells, transient transfection with canine PTH1-pCR3.1
T1 sequence (Q9TU31 29-595): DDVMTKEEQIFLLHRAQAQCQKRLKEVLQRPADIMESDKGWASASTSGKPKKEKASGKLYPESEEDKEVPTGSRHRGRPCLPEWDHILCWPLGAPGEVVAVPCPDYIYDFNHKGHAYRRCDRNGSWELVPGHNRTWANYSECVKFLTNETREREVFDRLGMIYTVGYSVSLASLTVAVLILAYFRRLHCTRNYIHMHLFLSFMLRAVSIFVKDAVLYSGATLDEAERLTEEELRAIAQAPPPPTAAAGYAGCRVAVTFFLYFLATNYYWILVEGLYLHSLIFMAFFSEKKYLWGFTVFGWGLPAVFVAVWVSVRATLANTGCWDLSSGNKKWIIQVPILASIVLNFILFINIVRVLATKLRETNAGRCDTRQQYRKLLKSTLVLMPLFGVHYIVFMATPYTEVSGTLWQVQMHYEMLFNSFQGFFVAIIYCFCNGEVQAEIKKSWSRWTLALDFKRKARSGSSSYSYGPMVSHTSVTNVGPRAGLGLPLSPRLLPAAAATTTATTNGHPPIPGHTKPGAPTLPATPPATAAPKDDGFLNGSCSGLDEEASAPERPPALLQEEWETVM
As to the kind of experiment: Whole cell 125I-human PTH (1-34) competition binding to canine PTH1 transiently transfected CHO cells. The note with it: canine PTH1/pCR3.1 transiently transfected CHO cells, 2 hours on ice. The method, then: (§1) CHO-K1 cells were purchased from ATCC (Rockville, Md.) and maintained in Dulbecco's modified Eagle's medium/F12 (DMEM/F12, Life Technologies, Gaithersburg, Md.) supplemented with 10% fetal calf serum (FCS, Gemini Bio-Products, Calabasas, Calif.). CHO cells were plated in 12 and 24-well plates (Becton Dickinson, Franklin Lakes, N.J.) at 1.6×10^6 cells/plate in DMEM/F12 supplemented with 10% FCS. 24 hours later, each plate of cells was transfected with 10 μg of the canine PTH1-pCR3.1 expression plasmid using Lipofectamine reagent (Life Technologies). Total volume of DNA-lipofectamine mix was 500 μl/well and 250 μl/well in the 12- and 24-well plates, respectively. After 5 hours, an equal volume of media supplemented with 20% FCS was added to each well and after 24 hours, the media was replaced with growth media. The cells were then allowed to grow for an additional 24 hours, at which time the cells in the 24-well plates were used in the PTH binding assay and the cells in the 12-well plates were used to determine receptor activation by measuring cAMP.
(§2) ^125I-human PTH 1-34 amide (2000 Ci/mmol) was purchased from Amersham (Arlington Heights, Ill.). Human PTH 1-34 and human PTHrP 1-34 were purchased from Peninsula Laboratories (San Carlos, Calif.). Canine PTH (1-34) and PTHrP (1-34) (Rosol, 1995) were custom synthesized by Princeton BioMolecules (Columbus, Ohio). Human aldosterone secretion inhibitory factor (1-35), used as a similarly sized non-specific peptide, was purchased from Sigma.
Canine PTH1 transiently transfected CHO cells in 24-well plates were subjected to whole cell human ^125I-PTH (1-34) competition binding. Culture media was removed, cell monolayers washed once each with ice-cold Dulbecco's phosphate buffered saline (Life Technologies) and ice-cold assay buffer (AB; 50 mM Tris-HCl, 100 mM NaCl, 2 mM CaCl2, 5 mM KCl, 0.5% heat inactivated FCS (Life Technologies), and 5% heat-inactivated horse serum (Life Technologies), pH 7.7). Subsequent to adding 225 μl of AB to each well, 25 μl of 10x peptide (10^−4- […]) in AB containing 800 cpms/μl of ^125I-human PTH (1-34) was added to each of three wells. Plates were incubated for 2 hours on ice, binding mix removed by aspiration, washed 2x with ice-cold assay AB, cells solubilized in 1% SDS and total bound counts determined. Percent bound ^125I-PTH (1-34) was calculated using the following equation: [formula]

Experiment [2] addresses T1, canine PTH1 receptor. Kind of experiment: Intracellular cAMP accumulation in CHO cells transiently transfected with canine PTH1. Type of experiment: cell-based. The note with it: peptide 10^-7 M, 15 minutes at 37° C. The method, then:
as §1, §2
To measure stimulation of cAMP production, cells transiently transfected with canine PTH1 were rinsed once with test medium (serum-free DMEM/F12 containing 0.2 mM 3-isobutyl-1-methylxanthine (IBMX; Calbiochem, La Jolla, Calif.)), then preincubated with 1 ml/well test medium for 10 minutes at 37° C. This medium was removed and cells were incubated with test medium containing the indicated peptides (10^−7 M) for 15 minutes at 37° C. […] Upon thawing cAMP was measured using a commercially available ELISA kit (Cayman Chemical, Ann Arbor, Mich.).
On the technique in general: cAMP levels reflect the balance of adenylyl cyclase and phosphodiesterase activity.

Entries after “also recorded” stand apart in the source; their conditions may differ.

For “human PTH (1-34): Human parathyroid hormone fragment 1-34, purchased from Peninsula Laboratories”, the “binding to canine PTH1 (displacement of 125I-hPTH (1-34))” value (“binding to canine PTH1” below) with canine PTH1 receptor [1] is on record as “specific displacement; also recorded: high affinity binding”; with canine PTH1 receptor [1] (listed as Human PTH) it was “specific binding”. The “intracellular cAMP accumulation (PTH1 activation)” value (“intracellular cAMP accumulation” below) with canine PTH1 receptor [2] was “increase in intracellular cAMP”.
With “canine PTH (1-34): Canine parathyroid hormone fragment 1-34, custom synthesized by Princeton BioMolecules (SVSEIQFMHNLGKHLSSMERVEWLRKKLQDVHNF)”, the “binding to canine PTH1” value in the experiment with canine PTH1 receptor [1] is reported as “specific displacement; also recorded: high affinity binding”; with canine PTH1 receptor [1] (listed as canine PTH), “specific binding”. Besides, the “intracellular cAMP accumulation” value in the experiment with canine PTH1 receptor [2] is “increase in intracellular cAMP”.
Consider “canine/human PTHrP (1-34): Canine/human parathyroid hormone related peptide fragment 1-34”, for which the “binding to canine PTH1” value is “high affinity binding” with canine PTH1 receptor [1], “specific binding” with canine PTH1 receptor [1] (listed as canine PTHrP) and “specific displacement” in the experiment with canine PTH1 receptor [1] (listed as canine/human parathyroid hormone related peptide (PTHrP) (1-34)). Also, the “intracellular cAMP accumulation” value with canine PTH1 receptor [2] was “increase in intracellular cAMP”.

(Values after US20020146777A1, “Canine parathyroid hormone 1 receptor” (priority 2000, published 2002).)
